From patent US20260232827A1, “ANTIBODY-DRUG CONJUGATES TARGETING NAPI2B AND METHODS OF USE” (Zymeworks BC Inc., priority 2023, published 2026)

Columns and labels:
[1] = molecular target: Fcγ receptor (FcγR) on the surface of immune effector cells; test: cell-based or functional assay
[2] = molecular target: human sodium-dependent phosphate transporter 2B (NaPi2b) (human) (UniProt O95436); test: competition flow cytometry, human NaPi2b on HEK293-6e; row antibody unlabeled 100 ug/mL; competitor: labeled v18992 (MX35) 1 ug/mL
human sodium-dependent phosphate transporter 2B (NaPi2b) (human), sequence (O95436 whole entry): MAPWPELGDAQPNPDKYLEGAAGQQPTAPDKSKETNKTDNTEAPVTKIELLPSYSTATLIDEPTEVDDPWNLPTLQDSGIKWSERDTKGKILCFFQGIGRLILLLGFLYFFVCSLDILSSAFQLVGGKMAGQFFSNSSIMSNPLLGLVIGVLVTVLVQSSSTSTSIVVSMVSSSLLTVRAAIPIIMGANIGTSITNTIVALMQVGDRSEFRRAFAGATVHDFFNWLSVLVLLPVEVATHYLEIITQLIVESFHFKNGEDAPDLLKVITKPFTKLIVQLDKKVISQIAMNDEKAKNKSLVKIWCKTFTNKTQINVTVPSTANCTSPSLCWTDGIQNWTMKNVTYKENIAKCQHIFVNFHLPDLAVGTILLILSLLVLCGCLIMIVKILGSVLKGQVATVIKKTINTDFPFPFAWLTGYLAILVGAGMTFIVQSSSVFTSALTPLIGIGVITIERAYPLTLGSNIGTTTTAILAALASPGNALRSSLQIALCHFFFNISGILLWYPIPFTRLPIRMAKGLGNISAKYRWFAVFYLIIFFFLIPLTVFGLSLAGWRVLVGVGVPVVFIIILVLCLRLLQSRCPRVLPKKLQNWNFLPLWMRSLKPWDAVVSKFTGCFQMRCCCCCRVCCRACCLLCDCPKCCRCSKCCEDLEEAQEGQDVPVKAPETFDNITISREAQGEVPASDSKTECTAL

[3] = molecular target: human sodium-dependent phosphate transporter 2B (NaPi2b) (human) (UniProt O95436); test: competition flow cytometry, human NaPi2b on HEK293-6e; row antibody unlabeled 100 ug/mL; competitor: labeled v16955 (negative control) 1 ug/mL
[4] = molecular target: human sodium-dependent phosphate transporter 2B (NaPi2b) (human) (UniProt O95436); test: competition flow cytometry, human NaPi2b on HEK293-6e; row antibody unlabeled 100 ug/mL; competitor: labeled v18993 (lifastuzumab) 1 ug/mL
[5] = molecular target: human sodium-dependent phosphate transporter 2B (NaPi2b) (human) (UniProt O95436); test: competition flow cytometry, human NaPi2b on HEK293-6e; row antibody unlabeled 100 ug/mL; competitor: labeled v23855 1 ug/mL
[6] = molecular target: Construct 4 (chimeric human NaPi2b, swap in NaPi2c in 341-358) (human); test: flow cytometry, transfected HEK293-6e cells, antibody 0.5 nM (footnote b)
Construct 4 (chimeric human NaPi2b, swap in NaPi2c in 341-358) (human), sequence (O95436 other isoform, or with tags, fused parts or gaps mutant): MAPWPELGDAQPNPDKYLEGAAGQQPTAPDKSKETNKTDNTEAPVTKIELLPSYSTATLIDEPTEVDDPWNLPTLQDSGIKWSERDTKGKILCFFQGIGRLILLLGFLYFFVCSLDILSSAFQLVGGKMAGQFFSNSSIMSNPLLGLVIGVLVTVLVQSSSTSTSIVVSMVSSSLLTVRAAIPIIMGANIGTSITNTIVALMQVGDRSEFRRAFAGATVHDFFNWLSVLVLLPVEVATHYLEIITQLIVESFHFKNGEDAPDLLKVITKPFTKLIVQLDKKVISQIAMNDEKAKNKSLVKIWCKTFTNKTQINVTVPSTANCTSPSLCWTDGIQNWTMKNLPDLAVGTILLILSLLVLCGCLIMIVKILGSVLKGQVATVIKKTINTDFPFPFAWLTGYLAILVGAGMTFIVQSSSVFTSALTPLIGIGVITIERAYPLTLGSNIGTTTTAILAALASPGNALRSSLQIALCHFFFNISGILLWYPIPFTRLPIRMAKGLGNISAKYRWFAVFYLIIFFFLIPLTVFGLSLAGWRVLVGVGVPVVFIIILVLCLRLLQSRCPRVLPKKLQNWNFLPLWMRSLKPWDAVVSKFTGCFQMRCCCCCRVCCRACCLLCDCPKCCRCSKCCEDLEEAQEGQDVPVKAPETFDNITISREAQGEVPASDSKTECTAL

[7] = molecular target: Construct 5 (chimeric human NaPi2b, swap in NaPi2a in 304-348) (human); test: as above
Construct 5 (chimeric human NaPi2b, swap in NaPi2a in 304-348) (human), sequence (O95436 other isoform, or with tags, fused parts or gaps mutant): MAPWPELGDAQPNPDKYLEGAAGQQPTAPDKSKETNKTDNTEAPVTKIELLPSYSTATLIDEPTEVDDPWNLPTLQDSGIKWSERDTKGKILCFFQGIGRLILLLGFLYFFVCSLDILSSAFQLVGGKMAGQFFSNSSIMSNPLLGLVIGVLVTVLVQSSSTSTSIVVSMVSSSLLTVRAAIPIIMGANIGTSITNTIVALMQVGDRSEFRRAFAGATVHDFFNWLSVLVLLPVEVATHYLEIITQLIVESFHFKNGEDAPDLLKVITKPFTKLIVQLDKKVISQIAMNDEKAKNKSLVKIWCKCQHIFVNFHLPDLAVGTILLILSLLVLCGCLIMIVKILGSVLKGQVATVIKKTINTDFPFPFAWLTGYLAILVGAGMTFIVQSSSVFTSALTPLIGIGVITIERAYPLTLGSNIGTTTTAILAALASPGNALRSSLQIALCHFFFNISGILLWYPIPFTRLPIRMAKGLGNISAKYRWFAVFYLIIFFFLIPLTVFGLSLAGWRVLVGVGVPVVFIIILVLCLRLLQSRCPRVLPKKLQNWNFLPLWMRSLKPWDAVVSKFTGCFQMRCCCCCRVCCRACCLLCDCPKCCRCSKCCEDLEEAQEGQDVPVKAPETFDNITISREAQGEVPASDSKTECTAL

[8] = molecular target: Construct 7 (human NaPi2b del 317-326) (human) (UniProt O95436); test: as above
Construct 7 (human NaPi2b del 317-326) (human), sequence (O95436 other isoform, or with tags, fused parts or gaps): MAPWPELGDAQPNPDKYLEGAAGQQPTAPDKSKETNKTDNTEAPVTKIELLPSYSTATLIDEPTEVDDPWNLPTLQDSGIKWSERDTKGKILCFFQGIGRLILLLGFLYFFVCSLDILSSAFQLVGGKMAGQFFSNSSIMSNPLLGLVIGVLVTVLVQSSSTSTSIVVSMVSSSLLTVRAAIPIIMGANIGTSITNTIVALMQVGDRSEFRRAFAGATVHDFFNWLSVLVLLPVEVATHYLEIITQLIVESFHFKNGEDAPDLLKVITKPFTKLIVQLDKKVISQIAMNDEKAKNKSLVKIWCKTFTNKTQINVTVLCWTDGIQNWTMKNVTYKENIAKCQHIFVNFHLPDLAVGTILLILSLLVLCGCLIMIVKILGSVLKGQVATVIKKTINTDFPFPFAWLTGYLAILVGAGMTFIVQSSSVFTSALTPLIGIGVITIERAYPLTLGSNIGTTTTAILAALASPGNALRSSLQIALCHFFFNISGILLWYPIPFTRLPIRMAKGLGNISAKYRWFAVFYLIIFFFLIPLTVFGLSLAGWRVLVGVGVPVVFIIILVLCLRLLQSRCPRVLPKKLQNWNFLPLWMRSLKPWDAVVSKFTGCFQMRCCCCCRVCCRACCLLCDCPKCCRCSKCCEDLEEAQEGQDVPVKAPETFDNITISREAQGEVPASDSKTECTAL

[9] = molecular target: Construct 2 (chimeric human NaPi2b, swap in NaPi2c in 280-301) (human); test: as above
Construct 2 (chimeric human NaPi2b, swap in NaPi2c in 280-301) (human), sequence (O95436 other isoform, or with tags, fused parts or gaps mutant): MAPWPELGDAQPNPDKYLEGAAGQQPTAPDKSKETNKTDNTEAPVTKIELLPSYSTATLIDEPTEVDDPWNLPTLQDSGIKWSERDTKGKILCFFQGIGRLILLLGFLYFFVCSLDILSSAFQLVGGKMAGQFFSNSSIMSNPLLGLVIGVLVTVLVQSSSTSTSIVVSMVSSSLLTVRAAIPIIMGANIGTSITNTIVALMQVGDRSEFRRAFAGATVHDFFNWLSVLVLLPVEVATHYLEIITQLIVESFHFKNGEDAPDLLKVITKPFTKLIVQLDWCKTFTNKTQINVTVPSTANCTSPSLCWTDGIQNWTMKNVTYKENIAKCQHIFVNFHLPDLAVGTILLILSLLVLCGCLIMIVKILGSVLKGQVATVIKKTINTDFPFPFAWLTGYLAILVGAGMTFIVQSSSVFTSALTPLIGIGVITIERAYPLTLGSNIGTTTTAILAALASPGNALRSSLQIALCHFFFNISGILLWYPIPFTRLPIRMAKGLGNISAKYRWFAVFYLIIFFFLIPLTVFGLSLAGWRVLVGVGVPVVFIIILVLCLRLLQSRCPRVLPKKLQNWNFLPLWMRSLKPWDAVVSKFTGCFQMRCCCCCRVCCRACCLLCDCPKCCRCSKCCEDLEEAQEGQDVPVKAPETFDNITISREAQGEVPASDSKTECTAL

[10] = molecular target: Full length human NaPi2b (sodium-dependent phosphate transporter 2B, SLC34A2) (human) (UniProt O95436); test: as above
Full length human NaPi2b (sodium-dependent phosphate transporter 2B, SLC34A2) (human), sequence (O95436 whole entry): as the sequence (O95436 whole entry) above

[11] = molecular target: Construct 6 (human NaPi2b del 317-333) (human) (UniProt O95436); test: as above
Construct 6 (human NaPi2b del 317-333) (human), sequence (O95436 other isoform, or with tags, fused parts or gaps): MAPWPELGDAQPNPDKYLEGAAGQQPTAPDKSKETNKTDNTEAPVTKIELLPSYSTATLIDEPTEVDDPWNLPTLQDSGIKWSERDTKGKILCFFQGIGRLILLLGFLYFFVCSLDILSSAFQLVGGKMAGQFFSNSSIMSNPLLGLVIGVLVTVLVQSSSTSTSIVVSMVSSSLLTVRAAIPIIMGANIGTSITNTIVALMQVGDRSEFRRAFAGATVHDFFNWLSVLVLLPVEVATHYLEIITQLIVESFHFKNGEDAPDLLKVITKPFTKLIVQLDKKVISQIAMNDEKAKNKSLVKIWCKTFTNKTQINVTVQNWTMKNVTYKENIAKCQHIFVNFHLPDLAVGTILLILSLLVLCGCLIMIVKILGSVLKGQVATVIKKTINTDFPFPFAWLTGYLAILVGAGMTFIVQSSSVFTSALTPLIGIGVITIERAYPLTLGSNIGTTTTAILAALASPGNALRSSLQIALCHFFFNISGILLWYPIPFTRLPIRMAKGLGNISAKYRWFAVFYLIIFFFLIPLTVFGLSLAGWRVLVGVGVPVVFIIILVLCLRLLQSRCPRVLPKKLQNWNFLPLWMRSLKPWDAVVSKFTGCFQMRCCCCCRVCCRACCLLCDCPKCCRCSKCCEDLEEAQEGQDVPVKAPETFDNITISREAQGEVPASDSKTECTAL

[12] = molecular target: Construct 3 (chimeric human NaPi2b, swap in NaPi2c in 304-321) (human); test: as above
Construct 3 (chimeric human NaPi2b, swap in NaPi2c in 304-321) (human), sequence (O95436 other isoform, or with tags, fused parts or gaps mutant): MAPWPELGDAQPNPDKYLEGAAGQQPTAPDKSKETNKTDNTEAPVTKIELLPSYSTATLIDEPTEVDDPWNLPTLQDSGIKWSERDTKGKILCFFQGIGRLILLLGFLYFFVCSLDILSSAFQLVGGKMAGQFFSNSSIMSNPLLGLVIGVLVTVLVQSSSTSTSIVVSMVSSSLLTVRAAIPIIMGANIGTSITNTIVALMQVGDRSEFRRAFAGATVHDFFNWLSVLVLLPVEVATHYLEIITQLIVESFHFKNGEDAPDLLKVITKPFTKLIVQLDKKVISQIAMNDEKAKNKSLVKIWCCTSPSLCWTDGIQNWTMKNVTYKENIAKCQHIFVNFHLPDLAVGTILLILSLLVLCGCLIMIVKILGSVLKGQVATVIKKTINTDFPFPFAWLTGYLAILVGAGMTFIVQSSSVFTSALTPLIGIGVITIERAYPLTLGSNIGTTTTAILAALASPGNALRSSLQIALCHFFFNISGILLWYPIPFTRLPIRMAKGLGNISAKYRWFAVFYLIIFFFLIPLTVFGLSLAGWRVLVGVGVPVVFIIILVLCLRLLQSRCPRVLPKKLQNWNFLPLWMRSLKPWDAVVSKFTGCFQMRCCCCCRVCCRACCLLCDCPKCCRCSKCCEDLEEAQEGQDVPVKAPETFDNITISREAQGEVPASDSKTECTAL

[13] = molecular target: Construct 1 (chimeric human NaPi2b, swap in NaPi2c in 239-259) (human); test: as above
[14] = molecular target: Construct 4 (chimeric human NaPi2b, swap in NaPi2c in 341-358) (human); test: flow cytometry, transfected HEK293-6e cells, antibody 50 nM (footnote b)
[15] = molecular target: Construct 5 (chimeric human NaPi2b, swap in NaPi2a in 304-348) (human); test: as above
[16] = molecular target: Construct 7 (human NaPi2b del 317-326) (human) (UniProt O95436); test: as above
[17] = molecular target: Construct 2 (chimeric human NaPi2b, swap in NaPi2c in 280-301) (human); test: as above
[18] = molecular target: Full length human NaPi2b (sodium-dependent phosphate transporter 2B, SLC34A2) (human) (UniProt O95436); test: as above
[19] = molecular target: Construct 6 (human NaPi2b del 317-333) (human) (UniProt O95436); test: as above
[20] = molecular target: Construct 3 (chimeric human NaPi2b, swap in NaPi2c in 304-321) (human); test: as above
[21] = molecular target: Construct 1 (chimeric human NaPi2b, swap in NaPi2c in 239-259) (human); test: as above
[22] = molecular target: Construct 4 (chimeric human NaPi2b, swap in NaPi2c in 341-358) (human); test: flow cytometry, transfected HEK293-6e cells, antibody 5 nM (footnote b)
[23] = molecular target: Construct 5 (chimeric human NaPi2b, swap in NaPi2a in 304-348) (human); test: as above
[24] = molecular target: Construct 7 (human NaPi2b del 317-326) (human) (UniProt O95436); test: as above
[25] = molecular target: Construct 2 (chimeric human NaPi2b, swap in NaPi2c in 280-301) (human); test: as above
[26] = molecular target: Full length human NaPi2b (sodium-dependent phosphate transporter 2B, SLC34A2) (human) (UniProt O95436); test: as above
[27] = molecular target: Construct 6 (human NaPi2b del 317-333) (human) (UniProt O95436); test: as above
[28] = molecular target: Construct 3 (chimeric human NaPi2b, swap in NaPi2c in 304-321) (human); test: as above
[29] = molecular target: Construct 1 (chimeric human NaPi2b, swap in NaPi2c in 239-259) (human); test: as above

v18992 (Fc wild-type MX-35) (antibody) was tested. Which ADCC EC50 (nM) (25 PBMCs:1 IGROV-1, 4-hour incubation) [1] did it give?
Its ADCC EC50 (nM) (25 PBMCs:1 IGROV-1, 4-hour incubation) is 0.035 nM.

What about the ADCP EC50 (nM) (2 Macs:1 IGROV-1, 2-hour incubation) [1] of the same substance?
The ADCP EC50 (nM) (2 Macs:1 IGROV-1, 2-hour incubation) was 0.043 nM.

What does the source list for “Lifastuzumab (v18993, wild-type Fc) (antibody)”?
% ADCC at 0.0192 nM (25 PBMCs:1 IGROV-1, 4 h) [1]: 5.96%; % ADCC at 0.48 nM (25 PBMCs:1 IGROV-1, 4 h) [1]: 14%; % ADCC at 12 nM (25 PBMCs:1 IGROV-1, 4 h) [1]: 14.4%

Which % Inhibition vs. irrelevant mAb [2] does the source give for “v16955 (Palivizumab, anti-RSV, negative control of Example 9) (antibody)” here?
Its % Inhibition vs. irrelevant mAb is 0%.

And the % Inhibition vs. irrelevant mAb [3]?
The % Inhibition vs. irrelevant mAb was 0%.

What about the % Inhibition vs. irrelevant mAb [4] of the same substance?
The % Inhibition vs. irrelevant mAb was 0%.

And the % Inhibition vs. irrelevant mAb [5]?
Its % Inhibition vs. irrelevant mAb is 0%.

How did the Background-Subtracted AF647 Mean Fluorescence Intensity [6] turn out when “reference anti-NaPi2a antibody (polyclonal rabbit anti-human SLC34A1; Atlas Biotechnologies Inc; Cat. No. HPA051255)” was run?
The Background-Subtracted AF647 Mean Fluorescence Intensity was 146 MFI.

What about the Background-Subtracted AF647 Mean Fluorescence Intensity [7] of the same substance?
The Background-Subtracted AF647 Mean Fluorescence Intensity was 119 MFI.

What about the Background-Subtracted AF647 Mean Fluorescence Intensity [8] of the same substance?
Its Background-Subtracted AF647 Mean Fluorescence Intensity is 369 MFI.

And the Background-Subtracted AF647 Mean Fluorescence Intensity [9]?
The Background-Subtracted AF647 Mean Fluorescence Intensity was 70 MFI.

What about the Background-Subtracted AF647 Mean Fluorescence Intensity [10] of the same substance?
The Background-Subtracted AF647 Mean Fluorescence Intensity was 596 MFI.

And the Background-Subtracted AF647 Mean Fluorescence Intensity [11]?
Its Background-Subtracted AF647 Mean Fluorescence Intensity is 666 MFI.

And the Background-Subtracted AF647 Mean Fluorescence Intensity [12]?
Its Background-Subtracted AF647 Mean Fluorescence Intensity is 40 MFI.

And the Background-Subtracted AF647 Mean Fluorescence Intensity [13]?
The Background-Subtracted AF647 Mean Fluorescence Intensity was 99 MFI.

And the Background-Subtracted AF647 Mean Fluorescence Intensity [14]?
Its Background-Subtracted AF647 Mean Fluorescence Intensity is 511 MFI.

What about the Background-Subtracted AF647 Mean Fluorescence Intensity [15] of the same substance?
Its Background-Subtracted AF647 Mean Fluorescence Intensity is 339 MFI.

And the Background-Subtracted AF647 Mean Fluorescence Intensity [16]?
Its Background-Subtracted AF647 Mean Fluorescence Intensity is 123 MFI.

And the Background-Subtracted AF647 Mean Fluorescence Intensity [17]?
Its Background-Subtracted AF647 Mean Fluorescence Intensity is 230 MFI.

What about the Background-Subtracted AF647 Mean Fluorescence Intensity [18] of the same substance?
Its Background-Subtracted AF647 Mean Fluorescence Intensity is 107 MFI.

And the Background-Subtracted AF647 Mean Fluorescence Intensity [19]?
The Background-Subtracted AF647 Mean Fluorescence Intensity was 291 MFI.

What about the Background-Subtracted AF647 Mean Fluorescence Intensity [20] of the same substance?
The Background-Subtracted AF647 Mean Fluorescence Intensity was 375 MFI.

What about the Background-Subtracted AF647 Mean Fluorescence Intensity [21] of the same substance?
Its Background-Subtracted AF647 Mean Fluorescence Intensity is 616 MFI.

What about the Background-Subtracted AF647 Mean Fluorescence Intensity [22] of the same substance?
Its Background-Subtracted AF647 Mean Fluorescence Intensity is 250 MFI.

And the Background-Subtracted AF647 Mean Fluorescence Intensity [23]?
The Background-Subtracted AF647 Mean Fluorescence Intensity was 546 MFI.

What about the Background-Subtracted AF647 Mean Fluorescence Intensity [24] of the same substance?
The Background-Subtracted AF647 Mean Fluorescence Intensity was 1 MFI.

What about the Background-Subtracted AF647 Mean Fluorescence Intensity [25] of the same substance?
The Background-Subtracted AF647 Mean Fluorescence Intensity was 222 MFI.

What about the Background-Subtracted AF647 Mean Fluorescence Intensity [26] of the same substance?
The Background-Subtracted AF647 Mean Fluorescence Intensity was 97 MFI.

What about the Background-Subtracted AF647 Mean Fluorescence Intensity [27] of the same substance?
The Background-Subtracted AF647 Mean Fluorescence Intensity was 283 MFI.

And the Background-Subtracted AF647 Mean Fluorescence Intensity [28]?
The Background-Subtracted AF647 Mean Fluorescence Intensity was 411 MFI.

And the Background-Subtracted AF647 Mean Fluorescence Intensity [29]?
Its Background-Subtracted AF647 Mean Fluorescence Intensity is 859 MFI.
